Laboratory results from patent US20230321189A1, “THERAPEUTIC AGENTS, PHARMACEUTICAL COMPOSITIONS, AND ASSOCIATED BIOMARKERS BASED ON TRK-B” (INSTITUTO DE MEDICINA MOLECULAR JOÃO LOBO ANTUNES, priority 2020, published 2023).
“Also recorded” adds a separate entry of the source. Where no end group is shown, it is not given here.

Columns and labels:
TrkB-FL [1] = molecular target: T1, TrkB-FL (Rattus norvegicus, UniProt Q63604); assay: Aβ-driven TrkB-FL cleavage in primary neuronal cultures (Western blot); format: cell-based; design: Western-blot of neuronal cultures; endogenous in cells; host or cells: primary cortical neuronal cultures from E17-E18 embryos; details: DIV8 neuronal cultures, peptide without linker, 20 μM (1, 5, 20 and 50 μM)
T1 sequence (Q63604 32-821): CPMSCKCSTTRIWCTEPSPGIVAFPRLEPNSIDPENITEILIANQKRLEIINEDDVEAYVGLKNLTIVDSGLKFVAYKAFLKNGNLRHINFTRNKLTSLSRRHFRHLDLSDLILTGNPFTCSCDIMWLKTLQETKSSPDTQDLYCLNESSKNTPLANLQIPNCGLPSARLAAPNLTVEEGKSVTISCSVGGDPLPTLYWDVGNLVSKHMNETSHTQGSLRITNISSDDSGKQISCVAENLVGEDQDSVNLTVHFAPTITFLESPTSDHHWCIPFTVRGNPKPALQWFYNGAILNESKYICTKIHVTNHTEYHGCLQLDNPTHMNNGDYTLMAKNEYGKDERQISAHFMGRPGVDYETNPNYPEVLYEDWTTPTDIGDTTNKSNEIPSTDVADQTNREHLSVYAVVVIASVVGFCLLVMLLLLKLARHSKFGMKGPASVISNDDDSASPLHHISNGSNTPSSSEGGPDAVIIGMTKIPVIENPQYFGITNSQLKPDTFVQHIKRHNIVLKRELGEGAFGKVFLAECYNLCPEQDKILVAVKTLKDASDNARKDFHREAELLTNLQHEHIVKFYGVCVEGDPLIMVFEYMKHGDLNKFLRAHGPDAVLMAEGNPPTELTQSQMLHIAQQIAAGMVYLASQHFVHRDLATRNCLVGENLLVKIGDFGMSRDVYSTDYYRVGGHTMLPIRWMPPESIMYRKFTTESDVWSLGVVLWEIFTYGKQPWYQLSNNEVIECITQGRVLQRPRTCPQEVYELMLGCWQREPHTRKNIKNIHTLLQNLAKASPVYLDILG
Method: Primary neuronal cultures were prepared as routinely in the lab^6. Briefly, animals were deeply anesthetized with isoflurane ([…], Barcelona, Spain) in an anaesthesia chamber before being sacrificed by decapitation. Embryos (E17-E18) were rapidly removed from the uterus and brains were dissected and placed in cold Ca^2+- and Mg^2+-free Hank's Balanced Salt Solution (HBSS) (Gibco, Paisley, UK). Cerebral cortex was isolated, mechanically fragmented and digested with 0.025% (wt/vl) trypsin solution (Gibco, Paisley, UK) in HBSS for 15 min at 37° C. After digestion, cells were precipitated by centrifugation at 1200 rpm. The supernatant was removed and 20% Fetal Bovine Serum (FBS) (Gibco, Paisley, UK) was added to HBSS. […] To obtain single cells and avoid cellular clusters or tissue fragments, the suspension was filtered with a nylon filter (BD FalconTM Cell Strainer 70 μM, Thermo Fisher Scientific, Waltham, MA, USA) and cell density was determined by counting cells in a 0.4% trypan blue solution using a hemacytometer. […] Finally, immunoreactivity was detected using the ECL system (ECL chemiluminescence detection system, GE Healthcare), an appropriate exposure time in a ChemiDoc (Bio-Rad, XRS^+) and quantified by the digital densitometry tool of ImageJ 1.45 software (Bethesda, MD, USA). […]

TrkB-FL [2] = molecular target: T1, TrkB-FL; assay: Calpain in vitro assay, adult rat brain cortex homogenate (Western blot); format: biochemical; design: rat cortical tissue or neuronal cultured cells were homogenized in Radio Immuno Precipitation Assay (RIPA) buffer; from tissue; host or cells: adult rat brain cortex homogenate (100 μg protein); details: peptide without linker 20 μM, m-calpain 1 or 2 EU, CaCl2 2 mM
Method: For calpain enzymatic assays, rat cortical tissue or neuronal cultured cells were homogenized in Radio Immuno Precipitation Assay (RIPA) buffer, containing 50 mM Tris-HCl [pH=7.5], 150 mM NaCl, 5 mM ethylenediamine tetra-acetic acid, 0.1% sodium dodecyl sulfate (SDS), 1% [v/vl] Triton X-100, protease inhibitors (Roche, Penzberg, Germany) and phosphatase inhibitors (10 mM NaF and 5 mM Na3VO4). For tissue homogenization, Vibracell VC250 Ultrasonic Liquid Processor was used (Sonics & Materials, Inc, CT, USA). Protein concentration was measured using Bio-Rad DC reagent (Bio-Rad Laboratories, Berkeley, CA, USA) after homogenates clarification by centrifugation (16,000 g, 4° C., 10 min). The purified rat m-calpain (1 or 2 enzymatic units, EU) (Calbiochem, San Diego, CA, USA) was incubated for 30 min at 25° C. in a 100 μL final volume of lysis buffer containing the homogenate protein (100 μg for rat brain cortex experiments and 65 μg for neuronal cultured cells), 2 mM of CaCl2 and TAT-TrkB peptide (5, 20 or 50 μM). […] Finally, immunoreactivity was detected using the ECL system (ECL chemiluminescence detection system, GE Healthcare), an appropriate exposure time in a ChemiDoc (Bio-Rad, XRS^+) and quantified by the digital densitometry tool of ImageJ 1.45 software (Bethesda, MD, USA). […]

[3] = tested on: bEnd.3 brain endothelioma cells; details: TAT-TrkB-6-FAM 5 μM apical; 1 h, 4 h and 24 h
Method: (§1) To evaluate the ability of the TAT-TrkB peptide to translocate the BEB, the inventors used a well-established in vitro model^15. It comprises a transwell system with an insert in which bEnd.3 brain endothelioma cells (ATTCC-CRL-2299, Lot. 59618606) are cultured for 9 days. In this model, the apical chamber replicates the blood compartment, while the basolateral chamber replicates the brain compartment (FIG. 7a). For these experiments, 6-FAM was fused to the N-terminal of the TAT-TrkB peptide, in order to detect the peptide by fluorescence. The TAT-TrkB-6-FAM peptide (5 μM, diluted in DMEM without phenol red) was delivered to the apical compartment. After incubation times of 1 h, 4 h and 24 h, in different inserts, medium from the apical and basolateral compartments was collected and fluorescence measured at 495 nm excitation and 517 nm emission wavelengths using the Varioskan LUX Multimode microplate reader (Thermo Scientific, Rockford, IL, USA ThermoFisher Scientific). Peptide translocation was quantified as the fluorescence detected in the basolateral compartment normalized to the sum of the fluorescence detected in both compartments. […] For these, FD4 fluorescent probe (diluted in DMEM without phenol red to a final absorbance below 0.1) was added to the apical compartment of the same inserts and incubated for 2 h. […]

[4] = tested on: bEnd.3 brain endothelioma cells; assay: BEB in vitro integrity assay (FD4 probe); format: in vitro ADME; details: FD4 added after each TAT-TrkB translocation assay, 2 h
Method: as §1

[5] = listed as TAT-TrkB without a linker sequence

Sequence | TrkB-FL cleavage and TrkB-ICD formation with Aβ incubation (TrkB-FL [1]) | TrkB-FL cleavage and TrkB-ICD formation with Aβ incubation (TrkB-FL [1]; [5]) | TrkB-FL cleavage and TrkB-ICD formation by m-calpain (TrkB-FL [2]) | TrkB-FL cleavage and TrkB-ICD formation by m-calpain (TrkB-FL [2]; [5]) | translocation of the BEB [3] | BEB integrity (clearance of FD4 from the apical chamber) [4]
YGRKKRRQRRRPQYFGITNSQLKPDTF [SEQ ID NO: 25, first version of TAT-TrkB without the linker] | not able to prevent TrkB-FL cleavage | not prevented | not able to prevent TrkB-FL cleavage | not prevented | – | –
YGRKKRRQRRRKKFGITNSQLKP [TAT-TrkB] | – | – | – | – | translocated the BEB overtime | without affecting its integrity; also recorded: negligible
